The target in this experiment is biotinylated Aβ oligomers (from bAβ1–42) (UniProt P05067 672-713). Put plainly: ELISA. Conditions: both partners purified. In general terms: In an ELISA, binding on a coated surface is turned into a signal by an enzyme label.

B1: wild-type human prion protein (amino acids 23–231), unlabeled (domain or fragment)
chain: not shown
For B1, the binding result is recorded as “binds”.

These data come from paper PMC4505445 (The Journal of Biological Chemistry, 2015).
